The values below come from US20260159603A1.

The target of this experiment is huCD5-BTN (human) (UniProt P06127). Briefly: BLI in tandem, huCD5-BTN saturated with UCHT2 first; competitor UCHT2.
Chain of huCD5-BTN (human) (P06127 25-372 limits assumed): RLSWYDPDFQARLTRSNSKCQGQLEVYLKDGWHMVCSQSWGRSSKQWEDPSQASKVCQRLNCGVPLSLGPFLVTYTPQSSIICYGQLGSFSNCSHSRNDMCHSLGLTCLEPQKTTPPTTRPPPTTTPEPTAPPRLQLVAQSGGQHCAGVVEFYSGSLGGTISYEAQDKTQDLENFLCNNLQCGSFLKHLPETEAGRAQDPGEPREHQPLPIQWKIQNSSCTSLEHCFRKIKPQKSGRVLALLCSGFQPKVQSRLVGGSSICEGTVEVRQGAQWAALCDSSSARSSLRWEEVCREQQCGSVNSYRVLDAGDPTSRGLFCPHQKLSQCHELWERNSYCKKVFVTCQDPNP

For the substance UCHT2 (antibody), the response (Response Units) stood at 0.
